Experimental data taken from PMC7256013, “Preclinical evaluation of cationic DOTA-triarginine-lipid conjugates for theranostic liquid brachytherapy” (Nanotheranostics, 2020).
Residues, ends and D or L forms follow the SMILES beside them. *: point of attachment. DOTA = O=C(O)CN1CCN(CC(=O)O)CCN(CC(=O)*)CCN(CC(=O)O)CC1; Stearoyl = CCCCCCCCCCCCCCCCCC(=O)*

What was measured:
in vivo [1] = conditions: female, Balb/C, mouse, total radioactivity
Experimental: CT26 wildtype cells (murine colon carcinoma, ATCC, Virginia, US) were cultured RPMI (Roswell Park Memorial Institute) medium supplemented with 10 % heat-inactivated Fetal Calf Serum (FCS) and 1 % Penicillin-Streptomycin (Invitrogen, Carlsbad, CA., US) retained in 5 % CO2 incubator at 37 °C. Immunocompetent female Balb/C mice (Charles River, Wilmington, MA., USA) were inoculated with tumor cells after one week of adaptation. All 20 mice included were inoculated subcutaneously with 3 x 10^5 CT26 wildtype cells in 100 µL medium on the right flank and hereafter monitored for weight and tumor size continuously for study purposes and to monitor the health of the mice. Tumor sizes were calculated from the formula of 0.52 x lenght^2 x width, as measured by external caliper. Animals were included in the study when tumors were approximately 400 mm^3.
(§1) Mice were injected intratumorally with ^64Cu-compounds in concentrations of 40 MBq/mL. During the scan procedures, mice were anaesthetized using 3-4 % sevoflurane (Abbott Scandinavia AB, Sweden) mixed with 35% O2 and 65% medical grade air and placed on heating pads. Two mice were positioned side-by-side, separated by a 6 mm polystyrene block for PET/CT imaging using Inveon® small animal PET/CT system with CT based PET image attenuation (Siemens Medical Systems, Malvern, PA, USA). The protocol included a 12-minute PET scan, followed by a CT scan. Mice were fixed on a bed inside the scanner with the syringe placed and the needle fixed centrally in the tumor and ready for injection. Upon initiation of the first scan, intratumoral injections were done manually over 30 seconds, to investigate the initial dynamics of the tracer diffusion. Following this, two further scans were included; at six hours (5 minutes scan time) and 24 hours (12 minutes scan time) after injection. Reconstruction of the PET scans were performed using maximum a posteriori (MAP) reconstruction algorithm (voxel size: 0.815 x 0.815 x 0.796 mm; resolution (FWHM) 1.2 mm). The injection scan was reconstructed in 4 x 30 second and 10 x 60 second time frames to observe the dynamics of tracer diffusion. The two last time points were reconstructed in a single time frame.
(§2) Image analysis was performed using commercially available Inveon software (Siemens Medical Systems, Malvern, PA, USA). Regions of interest (ROIs) were manually drawn based on the co-registered PET/CT images. The following ROIs were constructed; tumors (complete volume delineated), liver, spleen, kidney, bladder, and blood. Blood activity was estimated from a constructed ROI covering the left ventricular lumen of the heart. ROIs in the left ventricle and abdominal aorta were subsequently segmented to only include the voxels displaying above 80% of maximum activity with the original ROI. From the obtained uptake values all data was calculated into %ID/g for each organ and as %ID in tumors by adjusting for CT based tumor volume. Furthermore, voxel values from tumor ROIs were used to generate histograms for substance diffusion over time in the tumor region.

[2] = mouse, in vivo
Experimental: as §1, §2
(§3) Note that the first point in each plot represents the percentage of voxels with radioactivity concentrations lower than 1.6 %ID/g. These voxels are considered empty, meaning that the corresponding tumor region is non-radioactive.

in vivo [3] = conditions: female, Balb/C, mouse, total radioactivity; remark: listed apart in the source
Experimental: as §1, §2, §3

CCCCCCCCCCCCCCCCCC(=O)N[C@@H](CCCNC(=N)N)C(=O)N[C@@H](CCCNC(=N)N)C(=O)N[C@@H](CCCNC(=N)N)C(=O)N[C@@H](CCCCNC(=O)CN1CCN(CC(=O)O)CCN(CC(=O)O)CCN(CC(=O)O)CC1)C(N)=O [64Cu-D3R-C18, metal not drawn] (Stearoyl-RRRK(DOTA)-NH2)
tissue uptake at 15 s (in vivo [1]): 80 ± 66 %ID/g
tissue uptake at 45 s (in vivo [1]): 171 ± 96 %ID/g
tissue uptake at 75 s (in vivo [1]): 230 ± 58 %ID/g
tissue uptake at 105 s (in vivo [1]): 241 ± 63 %ID/g
tissue uptake at 2.5 min (in vivo [1]): 241 ± 66 %ID/g
tissue uptake at 3.5 min (in vivo [1]): 240 ± 68 %ID/g
tissue uptake at 0.075 h (in vivo [1]): 241 ± 69 %ID/g
tissue uptake at 5.5 min (in vivo [1]): 240 ± 70 %ID/g
tissue uptake at 6.5 min (in vivo [1]): 240 ± 70 %ID/g
tissue uptake at 0.125 h (in vivo [1]): 240 ± 70 %ID/g
tissue uptake at 8.5 min (in vivo [1]): 239 ± 69 %ID/g
tissue uptake at 9.5 min (in vivo [1]): 238 ± 70 %ID/g
tissue uptake at 0.175 h (in vivo [1]): 238 ± 70 %ID/g
tissue uptake at 11.5 min (in vivo [1]): 236 ± 70 %ID/g
tissue uptake at 6 h (in vivo [1]): 49 ± 17 %ID/g
tissue uptake at 24 h (in vivo [1]): 23 ± 7 %ID/g
tissue uptake dose at 0.2 h (in vivo [1]): 85 ± 11 %ID
range of voxel radioactivities in tumor [2]: 0-500 %ID/g
tissue uptake at 5 min (in vivo [3]): < 10 %ID/g
